# From publication PMC11073571, “Functional and in silico analysis of ATP8A2 and other P4-ATPase variants associated with human genetic diseases” (Disease Models & Mechanisms, 2024)
# Substrate: CCCCCCCC/C=C\CCCCCCCC(=O)OC[C@H](COP(=O)(O)OC[C@H](N)C(=O)O)OC(=O)CCCCCCC/C=C\CCCCCCCC
# Test: colorimetric phosphate-release ATPase assay, Michaelis-Menten fit
# Assay type: biochemical, Homo sapiens
# Details: PS activation constant (not association constant), 5 mM ATP, DOPC:DOPS mixtures at 2.5 mg/ml total lipid, 10 mM CHAPS, 12.5 mM MgCl2, pH 7.5, 37°C
row,Protein,K0.5 [µM]
1,"ATP8A2-CDC50A complex (Homo sapiens) (protein, heterodimer; with Cell cycle control protein 50A) MLNGAGLDKALKMSLPRRSRIRSSVGPVRSSLGYKKAEDEMSRATSVGDQLEAPARTIYLNQPHLNKFRDNQISTAKYSVLTFLPRFLYEQIRRAANAFFLFIALLQQIPDVSPTGRYTTLVPLIIILTIAGIKEIVEDFKRHKADNAVNKKKTIVLRNGMWHTIMWKEVAVGDIVKVVNGQYLPADVVLLSSSEPQAMCYVETANLDGETNLKIRQGLSHTADMQTREVLMKLSGTIECEGPNRHLYDFTGNLNLDGKSLVALGPDQILLRGTQLRNTQWVFGIVVYTGHDTKLMQNSTKAPLKRSNVEKVTNVQILVLFGILLVMALVSSAGALYWNRSHGEKNWYIKKMDTTSDNFGYNLLTFIILYNNLIPISLLVTLEVVKYTQALFINWDTDMYYIGNDTPAMARTSNLNEELGQVKYLFSDKTGTLTCNIMNFKKCSIAGVTYGHFPELAREPSSDDFCRMPPPCSDSCDFDDPRLLKNIEDRHPTAPCIQEFLTLLAVCHTVVPEKDGDNIIYQASSPDEAALVKGAKKLGFVFTARTPFSVIIEAMGQEQTFGILNVLEFSSDRKRMSVIVRTPSGRLRLYCKGADNVIFERLSKDSKYMEETLCHLEYFATEGLRTLCVAYADLSENEYEEWLKVYQEASTILKDRAQRLEECYEIIEKNLLLLGATAIEDRLQAGVPETIATLLKAEIKIWVLTGDKQETAINIGYSCRLVSQNMALILLKEDSLDATRAAITQHCTDLGNLLGKENDVALIIDGHTLKYALSFEVRRSFLDLALSCKAVICCRVSPLQKSEIVDVVKKRVKAITLAIGDGANDVGMIQTAHVGVGISGNEGMQATNNSDYAIAQFSYLEKLLLVHGAWSYNRVTKCILYCFYKNVVLYIIELWFAFVNGFSGQILFERWCIGLYNVIFTALPPFTLGIFERSCTQESMLRFPQLYKITQNGEGFNTKVFWGHCINALVHSLILFWFPMKALEHDTVLTSGHATDYLFVGNIVYTYVVVTVCLKAGLETTAWTKFSHLAVWGSMLTWLVFFGIYSTIWPTIPIAPDMRGQATMVLSSAHFWLGLFLVPTACLIEDVAWRAAKHTCKKTLLEEVQELETKSRVLGKAVLRDSNGKRLNERDRLIKRLGRKTPPTLFRGSSLQQGVPHGYAFSQEEHGAVSQEEVIRAYDTTKKKSRKK",14.3 ± 4.3
2,"ATP8A2-CDC50A complex (Homo sapiens; E459Q) (protein, heterodimer; with Cell cycle control protein 50A) MLNGAGLDKALKMSLPRRSRIRSSVGPVRSSLGYKKAEDEMSRATSVGDQLEAPARTIYLNQPHLNKFRDNQISTAKYSVLTFLPRFLYEQIRRAANAFFLFIALLQQIPDVSPTGRYTTLVPLIIILTIAGIKEIVEDFKRHKADNAVNKKKTIVLRNGMWHTIMWKEVAVGDIVKVVNGQYLPADVVLLSSSEPQAMCYVETANLDGETNLKIRQGLSHTADMQTREVLMKLSGTIECEGPNRHLYDFTGNLNLDGKSLVALGPDQILLRGTQLRNTQWVFGIVVYTGHDTKLMQNSTKAPLKRSNVEKVTNVQILVLFGILLVMALVSSAGALYWNRSHGEKNWYIKKMDTTSDNFGYNLLTFIILYNNLIPISLLVTLEVVKYTQALFINWDTDMYYIGNDTPAMARTSNLNEELGQVKYLFSDKTGTLTCNIMNFKKCSIAGVTYGHFPELARQPSSDDFCRMPPPCSDSCDFDDPRLLKNIEDRHPTAPCIQEFLTLLAVCHTVVPEKDGDNIIYQASSPDEAALVKGAKKLGFVFTARTPFSVIIEAMGQEQTFGILNVLEFSSDRKRMSVIVRTPSGRLRLYCKGADNVIFERLSKDSKYMEETLCHLEYFATEGLRTLCVAYADLSENEYEEWLKVYQEASTILKDRAQRLEECYEIIEKNLLLLGATAIEDRLQAGVPETIATLLKAEIKIWVLTGDKQETAINIGYSCRLVSQNMALILLKEDSLDATRAAITQHCTDLGNLLGKENDVALIIDGHTLKYALSFEVRRSFLDLALSCKAVICCRVSPLQKSEIVDVVKKRVKAITLAIGDGANDVGMIQTAHVGVGISGNEGMQATNNSDYAIAQFSYLEKLLLVHGAWSYNRVTKCILYCFYKNVVLYIIELWFAFVNGFSGQILFERWCIGLYNVIFTALPPFTLGIFERSCTQESMLRFPQLYKITQNGEGFNTKVFWGHCINALVHSLILFWFPMKALEHDTVLTSGHATDYLFVGNIVYTYVVVTVCLKAGLETTAWTKFSHLAVWGSMLTWLVFFGIYSTIWPTIPIAPDMRGQATMVLSSAHFWLGLFLVPTACLIEDVAWRAAKHTCKKTLLEEVQELETKSRVLGKAVLRDSNGKRLNERDRLIKRLGRKTPPTLFRGSSLQQGVPHGYAFSQEEHGAVSQEEVIRAYDTTKKKSRKK",8.4 ± 3.1
3,"ATP8A2-CDC50A complex (Homo sapiens; E459D) (protein, heterodimer; with Cell cycle control protein 50A) MLNGAGLDKALKMSLPRRSRIRSSVGPVRSSLGYKKAEDEMSRATSVGDQLEAPARTIYLNQPHLNKFRDNQISTAKYSVLTFLPRFLYEQIRRAANAFFLFIALLQQIPDVSPTGRYTTLVPLIIILTIAGIKEIVEDFKRHKADNAVNKKKTIVLRNGMWHTIMWKEVAVGDIVKVVNGQYLPADVVLLSSSEPQAMCYVETANLDGETNLKIRQGLSHTADMQTREVLMKLSGTIECEGPNRHLYDFTGNLNLDGKSLVALGPDQILLRGTQLRNTQWVFGIVVYTGHDTKLMQNSTKAPLKRSNVEKVTNVQILVLFGILLVMALVSSAGALYWNRSHGEKNWYIKKMDTTSDNFGYNLLTFIILYNNLIPISLLVTLEVVKYTQALFINWDTDMYYIGNDTPAMARTSNLNEELGQVKYLFSDKTGTLTCNIMNFKKCSIAGVTYGHFPELARDPSSDDFCRMPPPCSDSCDFDDPRLLKNIEDRHPTAPCIQEFLTLLAVCHTVVPEKDGDNIIYQASSPDEAALVKGAKKLGFVFTARTPFSVIIEAMGQEQTFGILNVLEFSSDRKRMSVIVRTPSGRLRLYCKGADNVIFERLSKDSKYMEETLCHLEYFATEGLRTLCVAYADLSENEYEEWLKVYQEASTILKDRAQRLEECYEIIEKNLLLLGATAIEDRLQAGVPETIATLLKAEIKIWVLTGDKQETAINIGYSCRLVSQNMALILLKEDSLDATRAAITQHCTDLGNLLGKENDVALIIDGHTLKYALSFEVRRSFLDLALSCKAVICCRVSPLQKSEIVDVVKKRVKAITLAIGDGANDVGMIQTAHVGVGISGNEGMQATNNSDYAIAQFSYLEKLLLVHGAWSYNRVTKCILYCFYKNVVLYIIELWFAFVNGFSGQILFERWCIGLYNVIFTALPPFTLGIFERSCTQESMLRFPQLYKITQNGEGFNTKVFWGHCINALVHSLILFWFPMKALEHDTVLTSGHATDYLFVGNIVYTYVVVTVCLKAGLETTAWTKFSHLAVWGSMLTWLVFFGIYSTIWPTIPIAPDMRGQATMVLSSAHFWLGLFLVPTACLIEDVAWRAAKHTCKKTLLEEVQELETKSRVLGKAVLRDSNGKRLNERDRLIKRLGRKTPPTLFRGSSLQQGVPHGYAFSQEEHGAVSQEEVIRAYDTTKKKSRKK",19.3 ± 4.2
